In publication PMC9959367, “Identification and Characterization of p300-Mediated Lysine Residues in Cardiac SERCA2a” (International Journal of Molecular Sciences, 2023):

Target: T1, phospholamban (PLN) (UniProt P26678 1-52)
T1 construct: phospholamban, overexpressed
T1 sequence (looked up): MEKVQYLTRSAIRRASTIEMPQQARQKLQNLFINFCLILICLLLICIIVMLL
Experiment: co-IP; IP experiments in overexpression systems, told in the discussion only, data not shown; which partner was precipitated is not told
Details: partners not purified

B1: acetylation-mimic mutant of K328 SERCA2a (K328Q) (natural protein, UniProt P16615-2 1-997, looked up)
chain: MENAHTKTVEEVLGHFGVNESTGLSLEQVKKLKERWGSNELPAEEGKTLLELVIEQFEDLLVRILLLAACISFVLAWFEEGEETITAFVEPFVILLILVANAIVGVWQERNAENAIEALKEYEPEMGKVYRQDRKSVQRIKAKDIVPGDIVEIAVGDKVPADIRLTSIKSTTLRVDQSILTGESVSVIKHTDPVPDPRAVNQDKKNMLFSGTNIAAGKAMGVVVATGVNTEIGKIRDEMVATEQERTPLQQKLDEFGEQLSKVISLICIAVWIINIGHFNDPVHGGSWIRGAIYYFKIAVALAVAAIPEGLPAVITTCLALGTRRMAQKNAIVRSLPSVETLGCTSVICSDKTGTLTTNQMSVCRMFILDRVEGDTCSLNEFTITGSTYAPIGEVHKDDKPVNCHQYDGLVELATICALCNDSALDYNEAKGVYEKVGEATETALTCLVEKMNVFDTELKGLSKIERANACNSVIKQLMKKEFTLEFSRDRKSMSVYCTPNKPSRTSMSKMFVKGAPEGVIDRCTHIRVGSTKVPMTSGVKQKIMSVIREWGSGSDTLRCLALATHDNPLRREEMHLEDSANFIKYETNLTFVGCVGMLDPPRIEVASSVKLCRQAGIRVIMITGDNKGTAVAICRRIGIFGQDEDVTSKAFTGREFDELNPSAQRDACLNARCFARVEPSHKSKIVEFLQSFDEITAMTGDGVNDAPALKKAEIGIAMGSGTAVAKTASEMVLADDNFSTIVAAVEEGRAIYNNMKQFIRYLISSNVGEVVCIFLTAALGFPEALIPVQLLWVNLVTDGLPATALGFNPPDLDIMNKPPRNPKEPLISGWLFFRYLAIGCYVGAATVGAAAWWFIAADGGPRVSFYQLSHFLQCKEDNPDFEGVDCAIFESPYPMTMALSVLVTIEMCNALNSLSENQSLLRMPPWENIWLVGSICLSMSLHFLILYVEPLPLIFQITPLNVTQWLMVLKISLPVILMDETLKFVARNYLEPAILE
notes: SERCA2a with lysine 328 exchanged for glutamine to mimic acetylation; The mutants were expressed from plasmids in HEK293 cells for the ATPase assays; also called K328Q SERCA2a
fold change of affinity against wild-type SERCA2a: ~2.5 fold
